The term IC50 denotes the concentration that gives 50% inhibition.

Assay [1] concerns the target T1, Recombinant human CD40L (human, UniProt P29965 108-261, limits assumed).
T1 construct: also called CD40 ligand
T1 sequence (looked up): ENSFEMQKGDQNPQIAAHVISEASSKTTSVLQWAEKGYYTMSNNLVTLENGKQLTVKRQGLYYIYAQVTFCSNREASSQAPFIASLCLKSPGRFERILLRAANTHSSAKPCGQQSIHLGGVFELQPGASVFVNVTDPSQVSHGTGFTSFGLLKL
Description: CD40L receptor binding assay: dAb inhibits CD40L (3 ng/ml) binding to coated CD40/Fc.
Description: (§1) A 96 well Nunc Maxisorp assay plate was coated overnight at 4° C. with 100 μl per well of recombinant human CD40/Fc (R&D Systems) at 0.5 μg/ml in carbonate buffer. The plate was washed 3 times with 300 μl of 0.05% Tween/PBS and 3 times with 300 μl of PBS using a Tecan plate washer. The wells were blocked using 200 μl of PBS containing 2% (w/v) BSA and incubated for a minimum of 1 h at room temperature. The wells were washed as above, then 50 μl of purified dAb protein (or unpurified supernatant containing dAb from a micro-culture expression) was added to each well.
(§2) The plate was washed as described above, then 100 μl HRP conjugated anti-biotin antibody (1:5000 dilution in diluent) added to each well and the plate incubated for 1 hr at room temperature. The plate was washed again as described above using a Tecan plate washer and the assay developed using 100 μl of SureBlue 1-Component TMB MicroWell Peroxidase solution (the plate was left at room temperature for up to 20 min). The reaction was stopped by the addition of 100 μl M hydrochloric acid. The OD₄₅₀ₙₘ of the plate was assayed within 30 minutes of acid addition. The OD₄₅₀ₙₘ is proportional to the amount of bound streptavidin-HRP conjugate, therefore the greater the degree of dAb inhibition the lower the OD₄₅₀ₙₘ of the resulting signal.

For assay [2], the target named is T1, Recombinant human CD40L. Description: CD40L/CD40-Fc receptor binding assay.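 Note: plate assay with coated human CD40-Fc, bound ligand detected via HRP anti-biotin antibody and TMB, OD at 450 nm, lower signal indicates stronger inhibition by dAb.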
Description: as §1, §2
Assay [3] deals with T1, Recombinant human CD40L. Description: CD40L receptor binding assay (RBA, ELISA): dAb titrated against 3 ng/ml CD40L binding to plate-coated CD40/Fc. (An ELISA detects its analyte on a solid surface through an enzyme-linked reagent.)
Description: (§3) A 96 well Nunc Maxisorp assay plate was coated overnight at 4° C. with 100 μl per well of recombinant human CD40/Fc (R&D Systems) at 0.5 μg/ml in carbonate buffer. The plate was washed 3 times with 300 μl of 0.05% Tween/PBS and 3 times with 300 μl of PBS using a Tecan plate washer. The wells were blocked using 200 μl of PBS containing 2% (w/v) BSA and incubated for a minimum of 1 h at room temperature. The wells were washed as above, then 50 μl of purified dAb protein was added to each well. […] The plate was washed as described above, then 100 μl HRP conjugated anti-biotin antibody (1:5000 dilution in diluent) added to each well and the plate incubated for 1 hr at room temperature. The plate was washed again as described above using a Tecan plate washer and the assay developed using 100 μl of SureBlue 1-Component TMB MicroWell Peroxidase solution (the plate was left at room temperature for up to 20 min). The reaction was stopped by the addition of 100 μl M hydrochloric acid. The OD₄₅₀ₙₘ of the plate was assayed within 30 minutes of acid addition. The OD₄₅₀ₙₘ is proportional to the amount of bound streptavidin-HRP conjugate, therefore the greater the degree of dAb inhibition the lower the OD₄₅₀ₙₘ of the resulting signal.
The target of assay [4] is T1, Recombinant human CD40L. Description: CD40L receptor binding assay: inhibition of CD40L (3 ng/ml) binding to coated CD40/Fc; 40K PEG.
Description: as §3
The target of assay [5] is T1, Recombinant human CD40L. Description: CD40L receptor binding assay: inhibition of CD40L (3 ng/ml) binding to coated CD40/Fc; 30K PEG.
Description: as §3

B1: DOM-10 (other)
VH: EVQLLESGGGLVQPGGSLRLSCAASGFTFIAYDMSWVRQAPGKGLEWVSWIDEWGLQTYYADSVKGRFTISRDNSKNTLYLQMNSLRAEDTAVYYCAKKTPEEFDYWGQGTLVTVSS
notes: VH dAb
Regarding B1, the IC50 in the assay with Recombinant human CD40L [1] was determined as 50 nM.

B2: DOM.88 (other)
VL: DIQMTQSPSSLSASVGDRVTITCRASQEIVEDLYWYQQKPGKAAKLLIYGASWLQSGVPSRFSGSGSGTDFTLTISSLQPEDFATYYCQQTRRRPYTFGQGTKVEIKR
notes: Vk dAb
Turning to B2, the binding result with Recombinant human CD40L [2] is on record as “binds”.

B3: DOM-8 (other)
VL: DIQMTQSPSSLSASVGDRVTITCRASQFIDTSLEWYQQKPGKAPKLLIYDGSHLQSGVPSRFSGSGSGTDFTLTISSLQPEDLATYYCQQYWVLPLTFGQGTKVEIKR
notes: Vk dAb
Consider B3, for which, in the assay with Recombinant human CD40L [1], the half-inhibitory concentration (IC50) worked out at 900 nM.

B4: DOM-82 (other)
VH: EVQLLESGGGLVQPGGSLRLSCAASGFTFVAYPMAWVRQAPGKGLEWVSTIAPLGGNTYYADSVKGRFTISRDNSKNTLYLQMNSLRAEDTAVYYCAKRPEGLQIDSQNFDYWGQGTLVTVSS
notes: VH dAb
Consider B4, for which the binding result with Recombinant human CD40L [2] is “binds”.

B5: DOM-87 (other)
VL: DIQMTQSPSSLSASVGDRVTITCRASQDIDESLMWYQQKPGKAPRLLIYGVSYLQSGVPSRFSGSGSGTDFTLTISSLQPEDFATYYCQQRWKAPFTFGQGTKVEIKR
notes: Vk dAb
For B5, the binding result with Recombinant human CD40L [2] was “binds”.

B6: DOM-2 (other)
VH: EVQLLESGGGLVQPGGSLRLSCAASGFTFSDYEMMWVRQAPGKGLEWVSTITSDGISTYYADSVKGRFTIFRDNSKNTLYLQMNSLRAEDTAVYYCAKSGRFFDYWGQGTLVTVSS
notes: VH dAb
For B6, in the assay with Recombinant human CD40L [1], the IC50 was 800 nM.

B7: DOM-20 (other)
VH: EVQLLESGGGLVQPGGSLRLSCAASGFTFSGYQMAWVRQAPGKGLEWVSGISSEGLTTYYADSVKGRFTISRDNSKNTLYLQMNSLRAEDTAVYYCAKLGRRFDYWGQGTLVTVSS
notes: VH dAb
With B7, the IC50 in the assay with Recombinant human CD40L [1] worked out at 8 nM.

B8: DOM-4 (other)
VH: EVQLLESGGGLVQPGGSLRLSCAASGFTFDNYEMTWVRQAPGKGLEWVSSITSDGTSTYYADSVKGRFTISRDNSKNTLYLQMNSLRAEDTAVYYCAKPNPPFDYWGQGTLVTVSS
notes: VH dAb
For the molecule B8, the IC50 in the assay with Recombinant human CD40L [1] turned out to be 100 nM.

B9: DOM-31 (other)
VH: EVQLLESGGGLVQPGGSLRLSCAASGFTFEEYQMAWVRQAPGKGLEWVSTISDDGSSTYYADSVKGRFTISRDNSKNTLYLQMNSLRAEDTAVYYCAKPDLYFDYWGQGTLVTVSS
notes: VH dAb
Regarding B9, in the assay with Recombinant human CD40L [1], the concentration for half-maximal inhibition (IC50) stood at 8 nM.

B10: DOM-27 (other)
VH: EVQLLESGGGLVQPGGSLRLSCAASGFTFNLYEMTWVRQAPGKGLEWVSSITSDGVSTYYADSVKGRFTISRDNSKNTLYLQMNSLRAEDTAVYYCAKPDSPFDYWGQGTLVTVSS
notes: VH dAb
With B10, the IC50 with Recombinant human CD40L [1] was roughly 100 nM.

B11: DOM-7 (other)
VH: EVQLLESGGGLVQPGGSLRLSCAASGFTFNLYEMTWVRQAPGKGLEWVSSITSDGVSTYYADSVKGRFTISRDNSKNTLYLQMNSLRAEDTAVYYCAKAGVIFDYWGQGTLVTVSS
notes: VH dAb
Regarding B11, the half-maximal inhibitory concentration (IC50) in the assay with Recombinant human CD40L [1] came to 1500 nM.

B12: DOM-5 (other)
VH: EVQLLESGGGLVQPGGSLRLSCAASGFTFDGYEMAWVRQAPGKGLEWVSSITSDGTSTYYADSVKGRFTISRDNSKNTLYLQMNSLRAEDTAVYYCAKPGLRFDYWGQGTLVTVSS
notes: VH dAb
Regarding B12, the IC50 with Recombinant human CD40L [1] was 3 nM.

B13: DOM-24 (other)
VH: EVQLLESGGGLVQPGGSLRLSCAASGFTFSNYQMAWVRQAPGKGLEWVSSITSEGGSTYYADSVKGRFTISRDNSKNTLYLQMNSLRAEDTAVYYCAKPGKNFDYWGQGTLVTVSS
notes: VH dAb; also called DOM8-24; monomeric DOM-24
In the case of B13, in the assay with Recombinant human CD40L [1], the IC50 is 0.417 nM.

B14: DOM-30 (other)
VH: EVQLLESGGGLVQPGGSLRLSCAASGFTFARYQMAWVRQAPGKGLEWVSTISDDGDSTYYADSVKGRFTISRDNSKNTLYLQMNSLRAEDTAVYYCAKLDKLFDYWGQGTLVTVSS
notes: VH dAb
As to B14, in the assay with Recombinant human CD40L [1], the IC50 amounted to 8 nM.

B15: DOM-77 (other)
VH: EVQLLESGGGLVQPGGSLRLSCAASGFTFEEYGMAWVRQAPGKGLEWVSTISPLGISTYYADSVKGRFTISRDNSKNTLYLQMNSLRAEDTAVYYCAKHATSQESLRSFDYWGQGTLVTVSS
notes: VH dAb
Turning to B15, the half-inhibitory concentration (IC50) with Recombinant human CD40L [1] amounted to 40 nM.

B16: DOM-85 (other)
VH: EVQLLESGGGLVQPGGSLRLSCAASGFTFEQYDMRWVRQAPGKGLEWVSWIDEAGHETYYADSVKGRFTISRDNSRNTLYLQMNSLRAEDTAVYYCAKGMDGFDYWGQGTLVTVSS
notes: VH dAb
On to B16, for which the binding result in the assay with Recombinant human CD40L [2] is reported as “binds”.

B17: DOM8-24cys (other)
VH: ASTEVQLLESGGGLVQPGGSLRLSCAASGFTFSNYQMAWVRQAPGKGLEWVSSITSEGGSTYYADSVKGRFTISRDNSKNTLYLQMNSLRAEDTAVYYCAKPGKNFDYWGQGTLVTVSC
notes: VH dAb DOM8-24 with an engineered C-terminal cysteine (last Ser replaced by Cys); also called unmodified protein
Take B17: the “IC50 (read off the curve)” value with Recombinant human CD40L [3] is roughly 0.6 nM.

B18: 40K PEG2-MAL PEGylated DOM8-24cys (other)
VH: ASTEVQLLESGGGLVQPGGSLRLSCAASGFTFSNYQMAWVRQAPGKGLEWVSSITSEGGSTYYADSVKGRFTISRDNSKNTLYLQMNSLRAEDTAVYYCAKPGKNFDYWGQGTLVTVSC
modifications: 40K PEG2-MAL on the engineered C-terminal cysteine
notes: PEGylated monomer; also called 40K PEG DOM8-24cys
For the molecule B18, the IC50 with Recombinant human CD40L [4] was roughly 1 nM. Further, the “IC50 (read off the curve)” value with Recombinant human CD40L [3] is roughly 1 nM.

B19: 30K PEG-MAL PEGylated DOM8-24cys (other)
VH: ASTEVQLLESGGGLVQPGGSLRLSCAASGFTFSNYQMAWVRQAPGKGLEWVSSITSEGGSTYYADSVKGRFTISRDNSKNTLYLQMNSLRAEDTAVYYCAKPGKNFDYWGQGTLVTVSC
modifications: 30K PEG-MAL on the engineered C-terminal cysteine
notes: PEGylated monomer; also called 30K PEG DOM8-24cys
Turning to B19, the concentration for half-maximal inhibition (IC50) with Recombinant human CD40L [5] is roughly 1 nM. Besides, the “IC50 (read off the curve)” value with Recombinant human CD40L [3] is roughly 0.5 nM.

Values taken from patent US20090297524A1 (DOMANTIS, published 2009).
